Experimental data taken from the RNAGym collection of RNA variant scans (doi:10.7554/elife.80360).

B1: Hairpin Ribozyme (parent)
chain: GUCCUCUUUCACGUGCGCGUGAAAGAGAGAAGUGAACCAGAGAAACACACGUUGUGGUAUAUUACCUGGUA

Variants of: B1
Experiment: self-cleavage, relative activity (ratio to wild type); higher = more cleavage; co-transcriptional

Row | Variant | self-cleavage
1 | A11G A36U | 0.512
2 | U33C U53G | 0.299
3 | G34C C38G | 0.683
4 | G34C C38A | 0.563
5 | A23C C38U | 0.398
6 | G51A A71U | 0.718
7 | A35U A47G | 0.137
8 | C10G U53G | 0.632
9 | C6G U33G | 0.0659
10 | U14G A44U | 0.138
11 | A30U A71G | 0.286
12 | C37A A71U | 0.284
13 | C16A U53A | 0.936
14 | U7G C66G | 0.0969
15 | G29A U67A | 0.0562
16 | C3A U70G | 0.708
17 | A28C A61G | 0.1
18 | U7G U53A | 0.967
19 | C3A A59U | 0.126
20 | C4G U58C | 0.403
21 | C37A G51C | 0.239
22 | C16A A43G | 0.118
23 | A43U U58G | 0.0898
24 | C46G U58A | 0.256

Row | Variant | self-cleavage
25 | C6U A23U | 0.615
26 | G19A A39C | 0.437
27 | U8G U20G | 0.614
28 | C4A G13A | 0.193
29 | G1C G68C | 0.379
30 | U5A A44U | 0.125
31 | U33C C46G | 0.187
32 | U55A G69A | 0.172
33 | C3A G42A | 0.146
34 | A11U G29U | 0.0998
35 | C37G U70A | 0.488
36 | A11U C16A | 0.696
37 | C16A G40C | 0.157
38 | A28U U33C | 0.079
39 | C4A U8G | 0.0842
40 | U8C G56U | 0.167
41 | C10U G56A | 0.181
42 | C50U A71G | 0.457
43 | U2C A23G | 0.116
44 | G25A G69U | 0.0604
45 | G1C C4G | 0.301
46 | U20A A45G | 0.183
47 | A28G A43C | 0.153
48 | C10A G19A | 0.761

Row | Variant | self-cleavage
49 | G34C A47U | 0.465
50 | C38A A43U | 0.152
51 | C10A C18U | 0.809
52 | A64C C65A | 0.186
53 | U8G A59G | 0.121
54 | C16U A49G | 0.659
55 | A31G G56A | 0.0841
56 | A49C C50A | 0.139
57 | A36G U52A | 0.791
58 | G29C A31G | 0.187
59 | C38A C50G | 0.089
60 | G19C A35C | 0.832
61 | U14C G27C | 0.078
62 | G21C A44C | 0.0985
63 | C12G G13U | 0.561
64 | C48G | 0.153
65 | U8A A44U | 0.0969
66 | G42C U55G | 0.173
67 | A36C G69A | 0.24
68 | A28U G57A | 0.152
69 | A36C A43G | 0.131
70 | A30C C66A | 0.0863
71 | A47C A61G | 0.17
72 | G51U C66A | 0.192

Row | Variant | self-cleavage
73 | G13C G54C | 0.161
74 | C37A U70G | 0.446
75 | A26C A43G | 0.144
76 | A26G U52A | 0.896
77 | U2A A43G | 0.138
78 | C10G A47U | 0.175
79 | A35G A36G | 0.749
80 | U2G A23C | 0.289
81 | A31U G56U | 0.187
82 | G15U A23C | 1.14
83 | U60G U63A | 0.173
84 | U53C U70A | 1.09
85 | G1A G68A | 0.21
86 | C3A G29A | 0.112
87 | U8G A44G | 0.148
88 | A22G G40C | 0.146
89 | C3G G51U | 0.342
90 | A44G A61G | 0.152
91 | C18G U67C | 0.212
92 | A64G U67G | 0.159
93 | U7A C48G | 0.0789
94 | C3A G15A | 0.524
95 | C18A C37A | 0.315
96 | G27C A71G | 0.143

Row | Variant | self-cleavage
97 | A28C C66A | 0.0844
98 | U60G C65U | 0.183
99 | G1A U9G | 0.293
100 | G13U C16U | 0.818
101 | A23U U53A | 0.969
102 | C6G G56U | 0.141
103 | A11C G54U | 0.583
104 | G40C C48G | 0.127
105 | A45U U55G | 0.0773
106 | U5G G21U | 0.324
107 | G21C A23U | 0.5
108 | C4A G42C | 0.132
109 | G1C U60C | 0.314
110 | A41U A71G | 1.14
111 | C4A A36U | 0.197
112 | U52C G57C | 0.123
113 | C3U A30U | 0.0886
114 | G27C A31U | 0.223
115 | G21U G34U | 1.24
116 | U9G A59G | 0.241
117 | U55A G56C | 0.203
118 | A45U G69A | 0.111
119 | G15U A31U | 0.232
120 | A26U A31G | 0.389

Row | Variant | self-cleavage
121 | U2A U62C | 0.0796
122 | A24U G40A | 0.281
123 | U2A G51U | 0.228
124 | U8C A59G | 0.203
125 | U8C A49G | 0.347
126 | G15U A41C | 1.11
127 | A23U A26G | 0.88
128 | G1A A45G | 0.0977
129 | G40C A59C | 0.0991
130 | C3A A11U | 0.517
131 | U62C U70A | 0.194
132 | A22C G34U | 1.49
133 | U2C A71U | 0.2
134 | U62A A64U | 0.197
135 | G17U A47U | 0.101
136 | G15U U70G | 0.873
137 | G17A A45G | 0.15
138 | U55G A64U | 0.158
139 | G17A A61C | 0.199
140 | C18A U70G | 0.862
141 | U2A C3G | 0.127
142 | G51A U53C | 1.28
143 | U14A U62A | 0.0586
144 | G1A A64U | 0.272

Row | Variant | self-cleavage
145 | U20A A35G | 0.815
146 | U5G U62G | 0.145
147 | U58C G68U | 0.169
148 | C16G A23G | 0.751
149 | A31G U58C | 0.793
150 | C12A A61G | 0.174
151 | G54U U70A | 0.657
152 | A31C G42A | 0.164
153 | G40U C65U | 0.177
154 | A35C G42C | 0.505
155 | G42A C50U | 0.106
156 | G21C A24G | 0.555
157 | U20A G25U | 0.529
158 | U33G A47G | 0.0744
159 | C12U G25A | 0.482
160 | U14A C48U | 0.123
161 | A26C A49G | 0.461
162 | G25C A64C | 0.0865
163 | A11U G42U | 0.171
164 | G19U C48G | 0.2
165 | A47G A61C | 0.132
166 | A22G C65U | 0.395
167 | U33A G57U | 0.13
